Results: patent US20240238459

Tests used:
[1] = tested on: T1, substrate sequence FVQWFSKFLGK (SEQ ID NO:3)
T1 sequence: FVQWFSKFLGK

[2] = tested on: T2, granzyme B-cleavable restricted interaction peptide (GRIP B), full length
T2 sequence: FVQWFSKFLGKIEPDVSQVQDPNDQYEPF

^64Cu-GRIP B = tested on: T3, ^64Cu-GRIP B
T3 sequence: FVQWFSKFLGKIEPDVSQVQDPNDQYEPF

[3] = tested on: T4, quenched fluorogenic peptide NH2-K(MCA)IEPDVSQVK(DNP)-COOH
T4 sequence: KIEPDVSQVK

Row | Substance | protease specificity (cleavage activity; enzyme 5 nM, substrate 60 µM) [1] | proteolytic cleavage [2] | proteolytic conversion on radio-HPLC (^64Cu-GRIP B) | kcat/Km [3]
1 | MMP9 | the substrate sequence is highly specific for granzyme B compared to the other proteases tested | – | – | –
2 | caspase 3 | the substrate sequence is highly specific for granzyme B compared to the other proteases tested | – | – | –
3 | caspase 8 | the substrate sequence is highly specific for granzyme B compared to the other proteases tested | – | – | –
4 | recombinant human granzyme B | the substrate sequence is highly specific for granzyme B compared to the other proteases tested | full length GRIP B was efficiently cleaved by recombinant human GZMB | showed conversion within 30 minutes to one radiolabeled product | ˜8000 M^-1 sec^-1
5 | thrombin | the substrate sequence is highly specific for granzyme B compared to the other proteases tested | – | – | –
